Series [1] deals with the molecule itself. The series can be described thus: in vitro reconstitution of S-layer sheets, seen by cryo-EM and cryo-ET.
Series [2] concerns the molecule itself. The series can be described thus: crystal structure.

Data on two proteins can be found in PMC5699643 (Nature microbiology, 2017).

B1: RsaA, S-layer protein of Caulobacter crescentus CB15N (NA1000), full length, purified (natural protein)
chain: MAYTTAQLVTAYTNANLGKAPDAATTLTLDAYATQTQTGGLSDAAALTNTLKLVNSTTAVAIQTYQFFTGVAPSAAGLDFLVDSTTNTNDLNDAYYSKFAQENRFINFSINLATGAGAGATAFAAAYTGVSYAQTVATAYDKIIGNAVATAAGVDVAAAVAFLSRQANIDYLTAFVRANTPFTAAADIDLAVKAALIGTILNAATVSGIGGYATATAAMINDLSDGALSTDNAAGVNLFTAYPSSGVSGSTLSLTTGTDTLTGTANNDTFVAGEVAGAATLTVGDTLSGGAGTDVLNWVQAAAVTALPTGVTISGIETMNVTSGAAITLNTSSGVTGLTALNTNTSGAAQTVTAGAGQNLTATTAAQAANNVAVDGGANVTVASTGVTSGTTTVGANSAASGTVSVSVANSSTTTTGAIAVTGGTAVTVAQTAGNAVNTTLTQADVTVTGNSSTTAVTVTQTAAATAGATVAGRVNGAVTITDSAAASATTAGKIATVTLGSFGAATIDSSALTTVNLSGTGTSLGIGRGALTATPTANTLTLNVNGLTTTGAITDSEAAADDGFTTINIAGSTASSTIASLVAADATTLNISGDARVTITSHTAAALTGITVTNSVGATLGAELATGLVFTGGAGADSILLGATTKAIVMGAGDDTVTVSSATLGAGGSVNGGDGTDVLVANVNGSSFSADPAFGGFETLRVAGAAAQGSHNANGFTALQLGATAGATTFTNVAVNVGLTVLAAPTGTTTVTLANATGTSDVFNLTLSSSAALAAGTVALAGVETVNIAATDTNTTAHVDTLTLQATSAKSIVVTGNAGLNLTNTGNTAVTSFDASAVTGTGSAVTFVSANTTVGEVVTIRGGAGADSLTGSATANDTIIGGAGADTLVYTGGTDTFTGGTGADIFDINAIGTSTAFVTITDAAVGDKLDLVGISTNGAIADGAFGAAVTLGAAATLAQYLDAAAAGDGSGTSVAKWFQFGGDTYVVVDSSAGATFVSGADAVIKLTGLVTLTTSAFATEVLTLA
For the protein B1, the binding result in series [1] is on record as “binds”.

B2: RsaA(249-1026), the N-terminally cleaved RsaA in the crystals (domain or fragment)
chain: GSTLSLTTGTDTLTGTANNDTFVAGEVAGAATLTVGDTLSGGAGTDVLNWVQAAAVTALPTGVTISGIETMNVTSGAAITLNTSSGVTGLTALNTNTSGAAQTVTAGAGQNLTATTAAQAANNVAVDGGANVTVASTGVTSGTTTVGANSAASGTVSVSVANSSTTTTGAIAVTGGTAVTVAQTAGNAVNTTLTQADVTVTGNSSTTAVTVTQTAAATAGATVAGRVNGAVTITDSAAASATTAGKIATVTLGSFGAATIDSSALTTVNLSGTGTSLGIGRGALTATPTANTLTLNVNGLTTTGAITDSEAAADDGFTTINIAGSTASSTIASLVAADATTLNISGDARVTITSHTAAALTGITVTNSVGATLGAELATGLVFTGGAGADSILLGATTKAIVMGAGDDTVTVSSATLGAGGSVNGGDGTDVLVANVNGSSFSADPAFGGFETLRVAGAAAQGSHNANGFTALQLGATAGATTFTNVAVNVGLTVLAAPTGTTTVTLANATGTSDVFNLTLSSSAALAAGTVALAGVETVNIAATDTNTTAHVDTLTLQATSAKSIVVTGNAGLNLTNTGNTAVTSFDASAVTGTGSAVTFVSANTTVGEVVTIRGGAGADSLTGSATANDTIIGGAGADTLVYTGGTDTFTGGTGADIFDINAIGTSTAFVTITDAAVGDKLDLVGISTNGAIADGAFGAAVTLGAAATLAQYLDAAAAGDGSGTSVAKWFQFGGDTYVVVDSSAGATFVSGADAVIKLTGLVTLTTSAFATEVLTLA
With B2, the stoichiometry N – broadly, a count of units in the complex or per binding partner – in series [2] came out at 6.
